In patent publication US20240084011A1 (NANTBIO, published 2024):
Where a chain is given by its changes, count along the chain named.

T1: recombinant human CTLA-4 protein (human, UniProt P16410 36-161)
T1 construct: Recombinant protein used as analyte in SPR/Octet; also called hCTLA-4; CD152
T1 sequence (looked up): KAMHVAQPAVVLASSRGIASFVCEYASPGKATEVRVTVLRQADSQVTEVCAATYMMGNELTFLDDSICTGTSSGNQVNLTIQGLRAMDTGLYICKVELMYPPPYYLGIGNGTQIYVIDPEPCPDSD

B1: IgG antibody 78-8D2 HC / 78-8 LC (antibody, V domains shown)
VH: EVQLVESGGGLVQPGGSLRLSCAASGFTFSSYVMHWVRQAPGKGLEWVSAITWSGRGTYYADSVKGRFTISRDNSKNTLYLQMNSLRAEDTAVYYCARGRLFGLALYGEAFDVWGQGTLVTVSS
VL: DIQMTQSPSSLSASVGDRVTITCQASKDISNYLNWYQQKPGKAPKLLIYDASNLETGVPSRFSGSGSGTDFTFTISSLQPEDIATYYCQQFNSFPLTFGQGTKVEIKR
B2: IgG antibody 78-24D1V HC / 78-24 LC (antibody, V domains shown)
VH: EVQLVESGGGLVQPGGSLRLSCAASGFTFTSYSMHWVRQAPGKGLEWVSGISGSGRSTSYADSVKGRFTISRDNSKNTLYLQMNSLRAEDTAVYYCARDLMAFNLVRAGGFDVWGQGTLVTVSS
VL: B1 VL with K27Q, F91G, N92D, S93A, F94W, L96W
B3: IgG antibody 78-24D22V HC / 78-24 LC (antibody, V domains shown)
VH: B2 VH with T30P, R56W
VL: B1 VL with K27Q, F91G, N92D, S93A, F94W, L96W
B4: IgG antibody 78-24D17V HC / 78-24 LC (antibody, V domains shown)
VH: B2 VH with T30S, Y32S, R56G, D99Y, A102S, A108T, G109S, G110W
VL: B1 VL with K27Q, F91G, N92D, S93A, F94W, L96W
B5: IgG antibody 78-8D22 HC / 78-8 LC (antibody, V domains shown)
VH: B1 VH with T52S, R56S, L106R
VL: B1 VL
B6: IgG antibody 78-8D4 HC / 78-8 LC (antibody, V domains shown)
VH: B1 VH with R56G, A105V, L106R
VL: B1 VL

biological target: T2, recombinant mouse CTLA-4 protein (mouse, UniProt P09793 36-161); assay: SPR (Pioneer FE) or Octet (Red96e), 25 C; IgG captured by anti-human Fc or AHC sensor, mCTLA-4 as analyte
T2 construct: Recombinant protein used as analyte in SPR/Octet; also called murine CTLA-4; mCTLA-4
Excerpt: (§1) All values shown in Table 5 are ×10⁻⁹ M. Antibodies were captured on the chip surface using anti-human Fc antibody (SPR) or AHC sensor (Octet).

| Kd [nM] | Binder |
| --- | --- |
| 0.32 | B1 |
| 0.18 | B2 |
| 0.19 | B3 |
| 0.34 | B4 |
| 0.39 | B5 |
| 0.27 | B6 |

biological target: T2, recombinant mouse CTLA-4 protein; assay: SPR (Pioneer FE) or Octet (Red96e), 37 C; IgG captured by anti-human Fc or AHC sensor, mCTLA-4 as analyte
Excerpt: as §1

| Kd [nM] | Binder |
| --- | --- |
| 0.4 | B1 |
| 0.23 | B2 |
| 0.27 | B3 |
| 0.33 | B4 |
| 0.53 | B5 |
| 0.27 | B6 |

biological target: T1, recombinant human CTLA-4 protein; assay: SPR (Pioneer FE) or Octet (Red96e), 25 C; IgG captured by anti-human Fc or AHC sensor, hCTLA-4 as analyte
Excerpt: as §1

| Kd [nM] | Binder |
| --- | --- |
| 0.41 | B1 |
| 1.6 | B2 |
| 1.4 | B3 |
| 0.46 | B5 |
| 0.39 | B6 |

biological target: T1, recombinant human CTLA-4 protein; assay: SPR (Pioneer FE) or Octet (Red96e), 37 C; IgG captured by anti-human Fc or AHC sensor, hCTLA-4 as analyte
Excerpt: as §1

| Kd [nM] | Binder |
| --- | --- |
| 0.67 | B1 |
| 1.5 | B2 |
| 1.3 | B3 |
| 0.44 | B5 |
| 0.39 | B6 |
